Source: article PMC7049697
Numbering of substitutions follows the chain as printed.

Experiments:
Rap1-DBD P520L = molecular target: T1, Rap1-DBD P520L (Saccharomyces cerevisiae, UniProt P11938 358-601, P520L); assay: EMSA
T1 sequence: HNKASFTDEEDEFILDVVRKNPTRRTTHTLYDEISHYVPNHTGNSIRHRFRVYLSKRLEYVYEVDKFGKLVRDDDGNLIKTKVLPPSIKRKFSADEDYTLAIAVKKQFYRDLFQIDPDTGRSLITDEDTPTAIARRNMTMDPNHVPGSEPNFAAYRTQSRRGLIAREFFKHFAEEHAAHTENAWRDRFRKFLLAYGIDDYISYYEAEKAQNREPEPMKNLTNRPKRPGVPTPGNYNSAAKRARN

Rap1-DBD = molecular target: T2, Rap1-DBD (Saccharomyces cerevisiae, UniProt P11938 358-601); assay: EMSA
T2 sequence: T1 sequence with L163P

B1: 21 bp telomeric Rap1 site dsDNA (dsDNA)
DNA 1: CCGCACACCCACACACCAGTG
DNA 2: CACTGGTGTGTGGGTGTGCGG
B1: binds (Rap1-DBD P520L); binds (Rap1-DBD).
